Test results taken from patent US20250262210A1 (TRUSTEES OF COLUMBIA UNIVERSITY IN THE CITY OF NEW YORK, published 2025).

Tests used:
Experiment in all cases: IP/MS, LZTR1 wild type-FLAG, U87
[1] = biological target: T1, ATAD2 (human, UniProt Q6PL18 1-1390, limits assumed)
T1 sequence (looked up): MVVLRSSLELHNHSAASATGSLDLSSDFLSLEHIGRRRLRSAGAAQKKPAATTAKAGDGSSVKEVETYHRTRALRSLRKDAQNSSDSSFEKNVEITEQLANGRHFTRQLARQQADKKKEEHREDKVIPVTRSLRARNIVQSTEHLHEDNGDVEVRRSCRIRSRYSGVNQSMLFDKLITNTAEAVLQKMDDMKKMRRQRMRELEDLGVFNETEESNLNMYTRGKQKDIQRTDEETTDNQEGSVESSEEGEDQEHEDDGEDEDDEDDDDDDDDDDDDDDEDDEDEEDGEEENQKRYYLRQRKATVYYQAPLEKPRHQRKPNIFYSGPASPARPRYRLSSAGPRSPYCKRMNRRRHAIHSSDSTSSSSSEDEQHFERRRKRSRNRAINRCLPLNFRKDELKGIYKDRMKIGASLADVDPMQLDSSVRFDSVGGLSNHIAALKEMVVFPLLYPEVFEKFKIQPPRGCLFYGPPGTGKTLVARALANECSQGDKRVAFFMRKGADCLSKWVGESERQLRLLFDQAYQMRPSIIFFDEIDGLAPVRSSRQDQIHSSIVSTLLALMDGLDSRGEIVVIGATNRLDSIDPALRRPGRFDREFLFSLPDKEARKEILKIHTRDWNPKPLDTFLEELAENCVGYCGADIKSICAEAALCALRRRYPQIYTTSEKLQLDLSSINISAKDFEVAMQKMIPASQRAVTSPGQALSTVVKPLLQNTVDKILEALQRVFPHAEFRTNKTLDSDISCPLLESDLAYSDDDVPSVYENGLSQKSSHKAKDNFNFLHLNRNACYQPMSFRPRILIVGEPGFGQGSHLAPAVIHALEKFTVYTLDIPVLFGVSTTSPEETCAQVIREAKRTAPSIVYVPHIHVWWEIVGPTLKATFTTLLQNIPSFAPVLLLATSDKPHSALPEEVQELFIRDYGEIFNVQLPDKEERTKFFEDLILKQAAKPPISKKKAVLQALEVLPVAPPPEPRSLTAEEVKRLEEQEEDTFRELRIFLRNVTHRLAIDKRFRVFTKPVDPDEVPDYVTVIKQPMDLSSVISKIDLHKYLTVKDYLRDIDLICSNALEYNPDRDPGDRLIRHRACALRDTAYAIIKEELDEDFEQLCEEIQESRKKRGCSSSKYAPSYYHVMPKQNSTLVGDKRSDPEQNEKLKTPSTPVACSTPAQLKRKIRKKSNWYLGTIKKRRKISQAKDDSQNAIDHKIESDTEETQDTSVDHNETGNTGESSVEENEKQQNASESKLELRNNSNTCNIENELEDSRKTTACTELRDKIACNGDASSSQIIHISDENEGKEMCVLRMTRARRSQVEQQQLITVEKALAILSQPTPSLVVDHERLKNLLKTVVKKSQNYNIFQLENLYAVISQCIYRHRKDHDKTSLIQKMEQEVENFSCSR
Summary of the method: (§1)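 Read-out: spectral counts from LC-MS/MS (Orbitrap Fusion) after MaxQuant identification. Variable modifications were Met oxidation, protein N-terminal acetylation and N/Q deamidation.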

[2] = biological target: KIAA1217 (human, UniProt Q5T5P2 1-1943, limits assumed)
Summary of the method: as §1

[3] = biological target: PAPPA (human, UniProt Q13219 82-1627)
Summary of the method: as §1

PAPPA, sequence (Q13219 82-1627 limits assumed): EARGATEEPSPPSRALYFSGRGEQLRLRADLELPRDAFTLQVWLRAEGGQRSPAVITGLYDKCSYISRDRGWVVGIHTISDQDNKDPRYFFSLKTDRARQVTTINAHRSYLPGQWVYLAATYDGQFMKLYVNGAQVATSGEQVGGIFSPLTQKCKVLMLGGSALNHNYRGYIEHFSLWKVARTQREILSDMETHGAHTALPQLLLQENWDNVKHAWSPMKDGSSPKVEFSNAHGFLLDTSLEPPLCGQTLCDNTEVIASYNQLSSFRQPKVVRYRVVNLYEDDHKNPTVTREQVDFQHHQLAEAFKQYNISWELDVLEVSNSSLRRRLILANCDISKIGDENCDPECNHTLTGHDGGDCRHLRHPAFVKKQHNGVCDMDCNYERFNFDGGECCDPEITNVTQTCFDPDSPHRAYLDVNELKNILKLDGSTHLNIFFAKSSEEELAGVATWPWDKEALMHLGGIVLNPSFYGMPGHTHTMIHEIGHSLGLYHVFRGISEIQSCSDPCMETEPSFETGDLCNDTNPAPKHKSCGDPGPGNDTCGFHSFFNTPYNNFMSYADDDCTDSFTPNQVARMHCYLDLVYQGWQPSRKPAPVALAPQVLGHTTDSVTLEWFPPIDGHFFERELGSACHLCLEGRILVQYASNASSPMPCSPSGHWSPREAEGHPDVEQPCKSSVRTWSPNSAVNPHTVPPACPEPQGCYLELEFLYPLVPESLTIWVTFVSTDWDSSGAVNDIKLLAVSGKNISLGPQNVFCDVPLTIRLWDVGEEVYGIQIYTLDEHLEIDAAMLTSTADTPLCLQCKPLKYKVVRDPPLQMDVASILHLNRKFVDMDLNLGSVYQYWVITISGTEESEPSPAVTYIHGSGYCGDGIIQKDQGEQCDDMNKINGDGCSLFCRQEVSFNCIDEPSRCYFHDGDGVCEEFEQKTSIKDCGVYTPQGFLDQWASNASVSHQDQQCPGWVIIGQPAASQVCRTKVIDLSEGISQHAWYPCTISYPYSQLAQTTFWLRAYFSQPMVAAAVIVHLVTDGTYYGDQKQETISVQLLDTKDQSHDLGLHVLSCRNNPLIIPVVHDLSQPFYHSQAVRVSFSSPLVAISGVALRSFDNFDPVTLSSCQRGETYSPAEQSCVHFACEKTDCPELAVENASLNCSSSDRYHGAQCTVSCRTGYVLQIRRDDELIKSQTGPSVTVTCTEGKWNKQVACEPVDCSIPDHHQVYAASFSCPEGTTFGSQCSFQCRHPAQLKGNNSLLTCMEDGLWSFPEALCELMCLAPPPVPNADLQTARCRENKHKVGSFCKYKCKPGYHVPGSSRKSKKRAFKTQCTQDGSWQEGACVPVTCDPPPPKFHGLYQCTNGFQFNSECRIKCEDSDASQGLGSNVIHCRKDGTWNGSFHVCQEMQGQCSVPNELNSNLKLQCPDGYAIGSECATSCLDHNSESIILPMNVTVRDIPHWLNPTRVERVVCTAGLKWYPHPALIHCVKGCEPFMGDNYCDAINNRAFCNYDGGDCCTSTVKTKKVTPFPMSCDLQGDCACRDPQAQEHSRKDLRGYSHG
KIAA1217, sequence (Q5T5P2 whole entry): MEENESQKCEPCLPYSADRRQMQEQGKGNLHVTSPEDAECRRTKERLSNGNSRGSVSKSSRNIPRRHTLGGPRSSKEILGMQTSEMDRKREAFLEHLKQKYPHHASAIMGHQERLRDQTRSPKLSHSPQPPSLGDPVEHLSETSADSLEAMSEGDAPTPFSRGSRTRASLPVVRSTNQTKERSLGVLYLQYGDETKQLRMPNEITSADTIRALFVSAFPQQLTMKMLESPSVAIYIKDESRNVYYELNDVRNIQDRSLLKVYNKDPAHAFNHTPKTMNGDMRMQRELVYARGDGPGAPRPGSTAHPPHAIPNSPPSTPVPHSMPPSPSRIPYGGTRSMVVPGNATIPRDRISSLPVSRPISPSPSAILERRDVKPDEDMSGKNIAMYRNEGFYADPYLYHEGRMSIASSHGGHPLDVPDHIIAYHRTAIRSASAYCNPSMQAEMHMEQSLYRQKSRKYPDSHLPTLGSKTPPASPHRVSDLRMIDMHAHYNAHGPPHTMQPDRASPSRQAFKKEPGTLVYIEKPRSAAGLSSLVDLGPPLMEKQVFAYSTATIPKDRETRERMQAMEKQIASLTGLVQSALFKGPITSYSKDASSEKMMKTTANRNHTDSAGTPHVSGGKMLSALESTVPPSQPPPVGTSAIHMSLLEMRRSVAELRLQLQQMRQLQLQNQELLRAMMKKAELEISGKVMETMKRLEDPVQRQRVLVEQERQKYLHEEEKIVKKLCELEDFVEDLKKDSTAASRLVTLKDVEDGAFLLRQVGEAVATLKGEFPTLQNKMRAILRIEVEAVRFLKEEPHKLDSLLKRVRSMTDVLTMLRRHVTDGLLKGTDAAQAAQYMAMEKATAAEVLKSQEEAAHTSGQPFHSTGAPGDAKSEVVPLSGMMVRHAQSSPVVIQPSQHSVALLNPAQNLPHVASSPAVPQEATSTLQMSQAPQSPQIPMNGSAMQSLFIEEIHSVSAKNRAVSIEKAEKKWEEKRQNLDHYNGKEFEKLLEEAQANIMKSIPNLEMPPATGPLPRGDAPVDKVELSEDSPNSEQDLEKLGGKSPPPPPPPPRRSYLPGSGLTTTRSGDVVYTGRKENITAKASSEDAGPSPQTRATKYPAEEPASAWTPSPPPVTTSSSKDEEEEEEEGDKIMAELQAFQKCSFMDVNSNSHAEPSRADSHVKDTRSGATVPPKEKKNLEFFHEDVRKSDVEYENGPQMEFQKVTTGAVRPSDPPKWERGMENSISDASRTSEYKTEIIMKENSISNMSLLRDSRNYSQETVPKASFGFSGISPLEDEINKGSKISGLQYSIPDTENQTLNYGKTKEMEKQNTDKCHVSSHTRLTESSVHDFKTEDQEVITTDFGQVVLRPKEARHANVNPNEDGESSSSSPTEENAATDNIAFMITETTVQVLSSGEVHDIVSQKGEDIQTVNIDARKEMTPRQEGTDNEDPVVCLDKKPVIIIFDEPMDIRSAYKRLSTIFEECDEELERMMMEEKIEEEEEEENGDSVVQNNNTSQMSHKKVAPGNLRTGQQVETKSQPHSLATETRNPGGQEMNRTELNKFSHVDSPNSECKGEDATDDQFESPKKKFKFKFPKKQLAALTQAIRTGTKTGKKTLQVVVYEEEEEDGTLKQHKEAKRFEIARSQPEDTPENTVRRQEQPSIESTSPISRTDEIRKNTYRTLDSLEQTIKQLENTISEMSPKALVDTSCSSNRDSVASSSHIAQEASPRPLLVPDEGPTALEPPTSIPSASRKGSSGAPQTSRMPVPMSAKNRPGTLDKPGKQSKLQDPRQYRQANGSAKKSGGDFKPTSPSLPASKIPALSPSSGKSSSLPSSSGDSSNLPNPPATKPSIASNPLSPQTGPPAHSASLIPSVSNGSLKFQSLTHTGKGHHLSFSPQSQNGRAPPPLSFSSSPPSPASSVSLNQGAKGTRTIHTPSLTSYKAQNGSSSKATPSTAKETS

binding result [1]: binds
binding result [2]: binds
binding result [3]: binds
B1: LZTR1-FLAG (other, human, UniProt Q8N653 1-840, looked up)
chain: MAGPGSTGGQIGAAALAGGARSKVAPSVDFDHSCSDSVEYLTLNFGPFETVHRWRRLPPCDEFVGARRSKHTVVAYKDAIYVFGGDNGKTMLNDLLRFDVKDCSWCRAFTTGTPPAPRYHHSAVVYGSSMFVFGGYTGDIYSNSNLKNKNDLFEYKFATGQWTEWKIEGRLPVARSAHGATVYSDKLWIFAGYDGNARLNDMWTIGLQDRELTCWEEVAQSGEIPPSCCNFPVAVCRDKMFVFSGQSGAKITNNLFQFEFKDKTWTRIPTEHLLRGSPPPPQRRYGHTMVAFDRHLYVFGGAADNTLPNELHCYDVDFQTWEVVQPSSDSEVGGAEVPERACASEEVPTLTYEERVGFKKSRDVFGLDFGTTSAKQPTQPASELPSGRLFHAAAVISDAMYIFGGTVDNNIRSGEMYRFQFSCYPKCTLHEDYGRLWESRQFCDVEFVLGEKEECVQGHVAIVTARSRWLRRKITQARERLAQKLEQEAAPVPREAPGVAAGGARPPLLHVAIREAEARPFEVLMQFLYTDKIKYPRKGHVEDVLLIMDVYKLALSFQLCRLEQLCRQYIEASVDLQNVLVVCESAARLQLSQLKEHCLNFVVKESHFNQVIMMKEFERLSSPLIVEIVRRKQQPPPRTPLDQPVDIGTSLIQDMKAYLEGAGAEFCDITLLLDGHPRPAHKAILAARSSYFEAMFRSFMPEDGQVNISIGEMVPSRQAFESMLRYIYYGEVNMPPEDSLYLFAAPYYYGFYNNRLQAYCKQNLEMNVTVQNVLQILEAADKTQALDMKRHCLHIIVHQFTKVSKLPTLRSLSQQLLLDIIDSLASHISDKQCAELGADI
notes: Expressed in HEK 293T, HeLa or U87 cells; used as cell lysate; also called LZTR1 wild type-FLAG; LZTR1 WT; not shown: FLAG tag at the C-terminus
